# Laboratory results from patent publication US20150230430A1 (University of Pennsylvania, published 2015).
# B1: chimeric anti-GnRH antibody (murine variable regions of hybridoma USASK/DSIL-LHRH-A1, ATCC HB-9094, fused with human IgG1 heavy chain and kappa light chain … (antibody, V domains shown)
# VH: QIQLVQSGPELKKPGETVKISCKASGYPFTNYGMNWVKQAPGKGLKWMGWINTYTGEPACADDFRGRFAISLETSARTAYLQINNLINEDTATYFCARTGGGRYNYGMDYWGQGTSVTVSS
# VL: QIVLTQSPAIMSASPGEKVTITCSATSSVSYIHWFQQKPGTSPKLWIYSTSNLASGVPVRFSGSGSGTSYSLTISRMEAEDAATYYCQQRSSYPPTFGGGTKLEIKR
# notes: Full-length chimeric heavy and light chains: murine variable regions on human IgG1 and human kappa constant domains; Tested as filtered supernatant of transiently transfected 293 HEK cells; also called chimeric GnRH antibody; chimeric antibody
# Target: T1, Gonadotropin Releasing Hormone (GnRH) peptide (mammalian (same amino acid sequence in …, N-terminal pyroglutamic acid (pGlu))); C-terminal amide (GlyNH2))
# T1 construct: GnRH peptide bought from Peptides International; also called LHRH; Luteinizing Hormone Releasing Hormone
# T1 peptide: EHWSYGLRPG
# Test: competition ELISA (Friguet method): supernatant pre-incubated overnight with free GnRH peptide, then GnRH-coated plate; nonlinear regression
# Procedure: Supernatant was harvested […] after transfection and passed through a 0.2 μm syringe filter (Corning, Corning, N.Y.). Filtered supernatant was evaluated for total antibody expression and GnRH binding activity using protein A and GnRH ELISAs, respectively. Polystyrene ELISA plates (Corning) were coated overnight at room temperature with protein A (5 μg/mL, Sigma Aldrich, St Louis, Mo.) or GnRH peptide (1 μg/mL, Peptides International, Louisville, Ky.) in phosphate buffered saline. Plates were washed five times with PBS containing 0.05% tween 20 (Sigma), then blocked for one hour at room temperature with 1% bovine serum albumin in PBS. Filtered supernatant serially diluted two-fold in PBS was incubated in blocked wells for one hour. Plates were washed five times, then incubated for one hour with a biotinylated goat anti-human IgG1 antibody (Jackson ImmunoResearch, West Grove, Pa.) diluted 1:10,000 in blocking solution. Plates were then washed, incubated with streptavidin-HRP (Abcam, Cambridge, Mass.) diluted 1:30,000 in blocking solution for one hour, washed again, and developed with TMB substrate (Sigma). The reaction was stopped after 20 minutes by the addition of 2 N sulfuric acid. Absorbance was measured at […], with a reading at 540 nm subtracted as background. […] The fraction of antibody binding sites occupied by GnRH was calculated using the method of Stevens, 1987. […]
binder,measurement,value
B1,Kd,3.9 nM
